According to paper PMC2879156:

Tests used:
[1] = molecular target: SarA C9A (Staphylococcus aureus, UniProt Q7A1N5 1-124, C9A); test: EMSA
[2] = molecular target: T1, SarA (Staphylococcus aureus, UniProt Q7A1N5 1-124); test: EMSA
T1 sequence: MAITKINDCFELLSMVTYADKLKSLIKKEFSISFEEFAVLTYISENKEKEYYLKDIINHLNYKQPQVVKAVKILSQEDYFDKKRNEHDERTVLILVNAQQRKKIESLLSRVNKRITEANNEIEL

B1: agr B1/B2 (dsDNA)
DNA 1: ATGTTAAAATATTAAATACAAATTACATTTAACAGTTAAGTATTTATTTCCTACAGTTA
DNA 2: TAACTGTAGGAAATAAATACTTAACTGTTAAATGTAATTTGTATTTAATATTTTAACAT
B1: binds [1]; binds [2].
